Experimental data: article PMC6565636, “Rif1 promotes association of G-quadruplex (G4) by its specific G4 binding and oligomerization activities”

Columns and labels:
[1] = molecular target: T1, Rif1 full-length (His6-Rif1-FLAG3) (Schizosaccharomyces pombe (fission …, UniProt Q96UP3 1-1400)); assay: EMSA; as efficient as or slightly better than AGTGn; EMSA with oligos heat-denatured and renatured in 50 mM KCl/40% PEG200 (Fig 5: 50 mM Tris-HCl pH 7.5 with KCl, NaCl or none); gel shift buffer 40 mM Hepes-KOH pH 7.6, 50 mM KCl, 1 mM EDTA, 10% glycerol, 0.01% Triton X-100; pull-down 30 min at room temperature; +++/++/+ = >50/>16/>6% shift at 1 nM Rif1; conditions: protein: recombinant, tags: N-term His6, C-term FLAG3, label: 32P
T1 sequence: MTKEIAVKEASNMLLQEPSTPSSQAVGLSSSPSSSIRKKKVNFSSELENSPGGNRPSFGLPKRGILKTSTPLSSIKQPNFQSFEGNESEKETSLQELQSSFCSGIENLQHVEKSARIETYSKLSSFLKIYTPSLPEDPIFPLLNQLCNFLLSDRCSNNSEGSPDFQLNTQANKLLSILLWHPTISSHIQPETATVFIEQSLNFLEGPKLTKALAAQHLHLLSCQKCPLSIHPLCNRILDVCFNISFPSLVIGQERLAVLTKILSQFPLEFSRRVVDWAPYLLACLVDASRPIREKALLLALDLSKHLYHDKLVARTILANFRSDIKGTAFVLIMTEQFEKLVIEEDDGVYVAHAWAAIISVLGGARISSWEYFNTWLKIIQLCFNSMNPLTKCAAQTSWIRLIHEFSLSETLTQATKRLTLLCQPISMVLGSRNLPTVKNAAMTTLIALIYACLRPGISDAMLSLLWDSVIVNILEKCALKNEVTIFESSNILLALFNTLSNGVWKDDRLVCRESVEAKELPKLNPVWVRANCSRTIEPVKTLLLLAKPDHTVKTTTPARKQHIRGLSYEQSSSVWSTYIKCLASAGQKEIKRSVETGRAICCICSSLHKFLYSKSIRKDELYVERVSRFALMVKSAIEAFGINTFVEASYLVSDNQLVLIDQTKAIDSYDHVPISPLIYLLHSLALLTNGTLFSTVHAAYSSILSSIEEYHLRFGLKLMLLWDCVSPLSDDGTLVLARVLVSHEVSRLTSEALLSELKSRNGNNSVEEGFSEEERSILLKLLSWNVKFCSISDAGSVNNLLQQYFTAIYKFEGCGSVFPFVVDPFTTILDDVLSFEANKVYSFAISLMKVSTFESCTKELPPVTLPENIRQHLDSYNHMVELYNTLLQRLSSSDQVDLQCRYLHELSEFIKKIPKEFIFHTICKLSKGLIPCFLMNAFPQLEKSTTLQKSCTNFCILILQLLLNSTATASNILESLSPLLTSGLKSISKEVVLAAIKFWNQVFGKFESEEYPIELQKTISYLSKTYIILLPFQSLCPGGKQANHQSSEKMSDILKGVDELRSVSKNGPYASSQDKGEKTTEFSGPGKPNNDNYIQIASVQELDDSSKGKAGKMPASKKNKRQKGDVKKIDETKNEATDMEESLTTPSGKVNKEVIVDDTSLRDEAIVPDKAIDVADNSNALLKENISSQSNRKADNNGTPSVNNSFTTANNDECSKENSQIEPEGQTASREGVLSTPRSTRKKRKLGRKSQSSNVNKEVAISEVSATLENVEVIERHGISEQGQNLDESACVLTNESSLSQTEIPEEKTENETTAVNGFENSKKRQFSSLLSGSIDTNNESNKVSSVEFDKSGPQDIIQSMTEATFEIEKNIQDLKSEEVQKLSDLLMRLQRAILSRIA

[2] = molecular target: T1, Rif1 full-length (His6-Rif1-FLAG3); assay: EMSA; KCl; EMSA with oligos heat-denatured and renatured in 50 mM KCl/40% PEG200 (Fig 5: 50 mM Tris-HCl pH 7.5 with KCl, NaCl or none); gel shift buffer 40 mM Hepes-KOH pH 7.6, 50 mM KCl, 1 mM EDTA, 10% glycerol, 0.01% Triton X-100; pull-down 30 min at room temperature; +++/++/+ = >50/>16/>6% shift at 1 nM Rif1; conditions: protein: recombinant, tags: N-term His6, C-term FLAG3, label: 32P
[3] = molecular target: T1, Rif1 full-length (His6-Rif1-FLAG3); assay: EMSA; KCl; three repeats most efficient; EMSA with oligos heat-denatured and renatured in 50 mM KCl/40% PEG200 (Fig 5: 50 mM Tris-HCl pH 7.5 with KCl, NaCl or none); gel shift buffer 40 mM Hepes-KOH pH 7.6, 50 mM KCl, 1 mM EDTA, 10% glycerol, 0.01% Triton X-100; pull-down 30 min at room temperature; +++/++/+ = >50/>16/>6% shift at 1 nM Rif1; conditions: protein: recombinant; tags: N-term His6, C-term FLAG3; label: 32P

Does ACAGGGGG (structured_DNA) bind ([1]; slow-migrating multimers)?
Result: binds

B1: Rif1-8 (70 nt) (structured_DNA)
DNA: GTGGGGGATGTGGGATAGACTATTTTAGACTTGAGACTGTGTATTCACTTAAAAGTGCTATGTGGGGGCA
Does B1 bind ([2]; parallel G4)?
Result: binds

Does AGGGCTAGGGCTACTAGGGGGG (structured_DNA) [Htelo4(GGGGGG)_3nt_spacer] bind ([2]; hybrid G4 in KCl, antiparallel in NaCl)?
Result: binds

Does GGGGTGGGAGGAGGGT (structured_DNA) [93del] bind ([2]; parallel G4 (dimeric))?
Result: binds

Does TTGGGGTGGGTGGGTGGGT (structured_DNA) [T95_2T_G] bind ([2]; parallel G4)?
Result: no binding

Does ACAGGGGGACAGGGGGACAGGGGG (structured_DNA) [(ACAGGGGG)3] bind [1]?
Result: binds

Does AGTGGGGAGTGGGGAGTGGGGAGTGGGG (structured_DNA) [(AGTGGGG)4] bind [2]?
Result: binds

Does AGTGGGAGTGGGAGTGGGAGTGGG (structured_DNA) [(AGTGGG)4] bind [2]?
Result: binds

Does AGTGGGGAGTGGGGAGTGGGG (structured_DNA) [(AGTGGGG)3] bind [3]?
Result: binds

Does AGGGAGGGAGGGAGGGTGG (structured_DNA) [CEB1_A] bind ([2]; parallel G4)?
Result: binds

Does AGGGCTAGGGCTACTAGGGCTAGGG (structured_DNA) [Htelo4_3nt_spacer] bind ([2]; antiparallel G4)?
Result: no binding

Does TTGGGGGTGGGTGGGTGGGT (structured_DNA) [T95_2T_GG] bind ([2]; parallel G4)?
Result: no binding

Does ACAGGGG (structured_DNA) bind [1]?
Result: binds

Does AGTGGGGGAGTGGGGG (structured_DNA) [(AGTGGGGG)2] bind [2]?
Result: binds

Does AGTGGGGGAGTGGGGGAGTGGGGG (structured_DNA) [(AGTGGGGG)3] bind [3]?
Result: binds

Does ATCTGAGAATCAGAT (structured_DNA) [DX2] bind ([2]; hairpin)?
Result: no binding

Does AGTGGGAGTGGGAGTGGG (structured_DNA) [(AGTGGG)3] bind [3]?
Result: binds

Does AGTGGGAGTGGG (structured_DNA) [(AGTGGG)2] bind [2]?
Result: binds

Does TAGGGGGGTTAGGGTTAGGG (structured_DNA) [Htelo1_no_spacer] bind ([2]; parallel G4)?
Result: binds

Does AGGGCTAGGGCTAGGGGGG (structured_DNA) [Htelo4(GGGGGG)] bind ([2]; hybrid G4)?
Result: binds

B2: DX1 (dsDNA)
DNA 1: CGCGAATTCGCG
DNA 2: CGCGAATTCGCG
Does B2 bind ([2]; blunt, self-complementary)?
Result: no binding

Does AGTGGG (ssDNA) bind [2]?
Result: no binding

Does TGAGGGTGGTGAGGGTGGGGA (structured_DNA) [Pu24T] bind ([2]; parallel G4)?
Result: binds

Does TAGGGTTAGGGTTAGGGGGG (structured_DNA) [Htelo1_no_spacer_2] bind ([2]; mix G4 in KCl, antiparallel in NaCl)?
Result: binds

Does AGTGGGGGAGTGGGGGAGTGGGGGAGTGGGGG (structured_DNA) [(AGTGGGGG)4] bind [2]?
Result: binds

Does TTGGGTTAGGGTTAGGGTTAGGGA (structured_DNA) [HT] bind ([2]; hybrid G4)?
Result: no binding

Does TAGGGAGGGTTAGGGTTAGGG (structured_DNA) [Htelo1_A] bind ([2]; hybrid or mix G4)?
Result: no binding

Does TTTTTTGAGAGAGAGAGAGAGAGAGAGAGA (ssDNA) [T6(GA)12] bind ([2]; no G4)?
Result: no binding

Does AGGGGGGAGGGAGGGTGG (structured_DNA) [CEB1] bind ([2]; parallel G4 (dimeric))?
Result: binds

Does AGTGGGGAGTGGGG (structured_DNA) [(AGTGGGG)2] bind [2]?
Result: binds

Does AGGGGGGAGGGAGGGT (structured_DNA) [CEB1_deltaGG] bind ([2]; parallel G4)?
Result: binds

Does AGGGCTAGGGCTAGGGCTAGGG (structured_DNA) [Htelo4] bind ([2]; antiparallel G4 (chair))?
Result: no binding

Does AGGGTAGGGAGGGAGGGTGG (structured_DNA) [CEB1_TA] bind ([2]; parallel G4 in KCl)?
Result: binds

Does AGGGTTAGGGAGGGAGGGTGG (structured_DNA) [CEB1_TTA] bind ([2]; parallel G4 in KCl)?
Result: binds

Does GGGTTAGGGTTAGGGTTAGGGT (structured_DNA) [Htelo3] bind ([2]; hybrid G4 in K+ (CD))?
Result: no binding

Does ACAGGGGACAGGGGACAGGGG (structured_DNA) [(ACAGGGG)3] bind [1]?
Result: binds
